Data reported in paper PMC6353796, “Thermostable Branched-Chain Amino Acid Transaminases From the Archaea Geoglobus acetivorans and Archaeoglobus fulgidus: Biochemical and Structural Characterization” (Frontiers in Bioengineering and Biotechnology, 2019).
Values joined by “and” are separate entries in the source; they are usually repeats but may differ in a detail not shown here. Equal entries are not always repeated.

Columns and labels:
[1] = molecular target: GEO1900, branched-chain amino acid transaminase (BCAT) from Geoglobus acetivorans (Geoglobus acetivorans); experiment: SEC; GEO1900 on Superdex 200 in 30 mM Tris-HCl, pH 8.0, 300 mM NaCl; native molecular weight by gel filtration
[2] = molecular target: GEO1900, branched-chain amino acid transaminase (BCAT) from Geoglobus acetivorans (Geoglobus acetivorans); experiment: crystal structure; GEO1900 holo form and AKG complex, space group P3(2)21, three subunits per asymmetric unit; hexamer built with symmetry mates

For “GEO1900, branched-chain amino acid transaminase (BCAT) from Geoglobus acetivorans (enzyme)”, the stoichiometry N [1] was 2 and 4 and the stoichiometry N [2] was 6.
